Laboratory results reported in US20240261333A1 (published 2024).

T1: TRAFD1 (human, UniProt O14545 2-582)
T1 construct: also called NP_006691.1
T1 sequence (looked up): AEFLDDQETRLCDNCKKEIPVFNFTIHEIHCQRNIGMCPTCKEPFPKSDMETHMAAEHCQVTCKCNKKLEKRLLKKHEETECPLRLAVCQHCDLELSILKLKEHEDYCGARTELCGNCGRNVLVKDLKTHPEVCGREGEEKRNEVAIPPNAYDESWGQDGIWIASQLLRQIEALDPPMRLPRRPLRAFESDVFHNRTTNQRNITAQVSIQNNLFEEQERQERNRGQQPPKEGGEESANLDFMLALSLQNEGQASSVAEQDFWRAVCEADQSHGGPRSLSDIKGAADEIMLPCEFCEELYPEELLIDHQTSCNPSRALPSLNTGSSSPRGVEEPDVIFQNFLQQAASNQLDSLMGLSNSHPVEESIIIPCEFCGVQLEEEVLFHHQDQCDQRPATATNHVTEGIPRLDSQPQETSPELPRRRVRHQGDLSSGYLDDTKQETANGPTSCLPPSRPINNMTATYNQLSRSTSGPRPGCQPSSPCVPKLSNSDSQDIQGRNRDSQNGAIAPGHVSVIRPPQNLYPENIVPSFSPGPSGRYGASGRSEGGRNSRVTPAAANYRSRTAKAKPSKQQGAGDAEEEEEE

T2: SLC25A22 (human, UniProt Q9H936 1-323)
T2 construct: also called NP_001177990.1
T2 sequence (looked up): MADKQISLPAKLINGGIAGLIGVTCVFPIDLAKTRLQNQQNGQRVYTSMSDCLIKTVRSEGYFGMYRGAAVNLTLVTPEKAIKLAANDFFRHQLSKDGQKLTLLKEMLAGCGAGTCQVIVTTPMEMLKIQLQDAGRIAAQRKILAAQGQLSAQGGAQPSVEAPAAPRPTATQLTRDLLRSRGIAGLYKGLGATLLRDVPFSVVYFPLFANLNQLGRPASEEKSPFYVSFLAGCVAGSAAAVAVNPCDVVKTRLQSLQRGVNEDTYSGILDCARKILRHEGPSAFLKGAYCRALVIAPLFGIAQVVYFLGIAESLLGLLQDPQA


Tests used:
VIM = target: T3, VIM (human, UniProt P08670 2-466); test: co-IP with mouse anti-FLAG from lysate of cells overexpressing N-FLAG B3GNT2, then mass spectrometry
T3 construct: Identified by mass spectrometry in the co-IP; also called NP_003371.2
Method: (§1) Cells were plated in 10-cm cell culture dishes and grown to 60-80% confluency. For each condition, two biological replicates were harvested for co-IP. Cells were washed with PBS and 4 mL of lysis buffer (20 mM HEPES, 1% Triton X-100, 150 mM NaCl, 1 mM EDTA, and 10% glycerol) containing protease inhibitor cocktail was added. Cells were scraped and lysate was incubated at 4° C. under rotary agitation for 1 h. Lysate was centrifuged at 14,000×g for 10 min at 4° C. Supernatant was transferred to a new tube and an aliquot was taken as the input. […] For Western blots, 10 μg/mL Chicken Anti-FLAG (Aves labs ET-DY100) and IgY control (R&D Systems AB-101-C) antibodies were biotinylated (Thermo Fisher Scientific 90407) and added to the respective conditions. Lysates with antibodies were incubated at 4° C. under rotary agitation overnight. For each mL of lysate, 50 μL of Pierce Protein A/G Magnetic Beads (Mass spectrometry; Thermo Fisher Scientific 88803) or Pierce Streptavidin Magnetic Beads (Western blot; Thermo Fisher Scientific 88817) was washed twice with lysis buffer. Lysates with antibodies were added to the beads and incubated at 4° C. under rotary agitation for 4 h. Beads were washed with lysis buffer 3 times and resuspended in lysis buffer for storage.
(§2) Magnetic beads were resuspended in 100 mM Tris pH 7.8, reduced, alkylated and digested with trypsin at 37° ° C. overnight. This solution was subjected to solid phase extraction to concentrate the peptides and remove unwanted reagents followed by injection onto a Shimadzu HPLC with fraction collector. Eight fractions were collected and after concentration were injected on a Waters NanoAcquity HPLC equipped with a self-packed Aeris 3 μm C18 analytical column 0.075 mm by 20 cm, (Phenomenex). Peptides were eluted using standard reverse-phase gradients. The effluent from the column was analyzed using a Thermo Orbitrap Elite mass spectrometer (nanospray configuration) operated in a data dependent manner for 54 minutes. The resulting fragmentation spectra were correlated against the known database using Proteome Discover 1.4 (Thermo Fisher Scientific).

ANXA2 = target: T4, ANXA2 (human, UniProt P07355-2 1-357, limits assumed); test: as above
T4 construct: Identified by mass spectrometry in the co-IP; also called NP_001002858.1 (+1)
Method: as §1, §2

TRAFD1 = target: T1, TRAFD1; test: anti-FLAG co-IP from lysate of N-FLAG B3GNT2 cells, mass spectrometry
Method: as §1, §2

IPO7 = target: T5, IPO7 (human, UniProt O95373 1-1038); test: as above
T5 construct: also called NP_006382.1
Method: as §1, §2

SLC25A22 = target: T2, SLC25A22; test: as above
Method: as §1, §2

ELOC = target: T6, ELOC (human, UniProt Q15369 1-112); test: as above
T6 construct: also called NP_001191791.1
Method: as §1, §2

ABCD1 = target: T7, ABCD1 (human, UniProt P33897 1-745); test: as above
T7 construct: also called NP_000024.2
Method: as §1, §2

T3 sequence (P08670 2-466 limits assumed): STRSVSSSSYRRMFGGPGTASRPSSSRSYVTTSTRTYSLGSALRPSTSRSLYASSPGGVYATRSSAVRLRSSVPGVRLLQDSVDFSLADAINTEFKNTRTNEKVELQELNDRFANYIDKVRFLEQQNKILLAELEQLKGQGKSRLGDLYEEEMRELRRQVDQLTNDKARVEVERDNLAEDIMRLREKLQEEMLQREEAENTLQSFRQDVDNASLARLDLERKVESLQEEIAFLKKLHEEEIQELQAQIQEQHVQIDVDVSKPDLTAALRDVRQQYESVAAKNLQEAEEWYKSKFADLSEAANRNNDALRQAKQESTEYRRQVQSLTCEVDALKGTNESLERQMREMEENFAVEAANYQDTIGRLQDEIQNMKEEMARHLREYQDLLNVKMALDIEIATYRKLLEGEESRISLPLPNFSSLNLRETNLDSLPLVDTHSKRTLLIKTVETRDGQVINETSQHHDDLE
T7 sequence (P33897 whole entry): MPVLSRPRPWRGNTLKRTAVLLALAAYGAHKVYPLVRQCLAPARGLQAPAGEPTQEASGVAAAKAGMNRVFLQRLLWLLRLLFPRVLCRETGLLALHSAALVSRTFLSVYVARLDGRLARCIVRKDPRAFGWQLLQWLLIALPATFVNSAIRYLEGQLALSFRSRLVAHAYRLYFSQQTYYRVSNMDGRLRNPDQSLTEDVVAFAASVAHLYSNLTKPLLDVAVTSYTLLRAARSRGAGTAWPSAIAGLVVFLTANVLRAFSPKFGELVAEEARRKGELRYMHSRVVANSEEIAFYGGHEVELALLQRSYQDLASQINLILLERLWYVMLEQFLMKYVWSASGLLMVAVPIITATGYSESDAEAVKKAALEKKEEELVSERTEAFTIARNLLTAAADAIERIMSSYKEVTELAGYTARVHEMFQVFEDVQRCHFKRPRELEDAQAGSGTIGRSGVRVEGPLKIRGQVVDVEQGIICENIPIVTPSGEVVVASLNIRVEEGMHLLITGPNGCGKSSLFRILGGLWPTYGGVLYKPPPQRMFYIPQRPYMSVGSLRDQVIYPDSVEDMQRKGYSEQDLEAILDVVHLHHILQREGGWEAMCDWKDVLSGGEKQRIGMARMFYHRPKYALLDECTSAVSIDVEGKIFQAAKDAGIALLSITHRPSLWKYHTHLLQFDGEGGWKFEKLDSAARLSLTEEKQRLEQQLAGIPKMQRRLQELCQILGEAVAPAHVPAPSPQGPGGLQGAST
T6 sequence (Q15369 whole entry): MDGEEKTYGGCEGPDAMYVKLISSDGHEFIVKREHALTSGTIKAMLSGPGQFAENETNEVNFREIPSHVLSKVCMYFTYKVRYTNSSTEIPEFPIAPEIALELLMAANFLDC
T4 sequence (P07355 other isoform, or with tags, fused parts or gaps limits assumed): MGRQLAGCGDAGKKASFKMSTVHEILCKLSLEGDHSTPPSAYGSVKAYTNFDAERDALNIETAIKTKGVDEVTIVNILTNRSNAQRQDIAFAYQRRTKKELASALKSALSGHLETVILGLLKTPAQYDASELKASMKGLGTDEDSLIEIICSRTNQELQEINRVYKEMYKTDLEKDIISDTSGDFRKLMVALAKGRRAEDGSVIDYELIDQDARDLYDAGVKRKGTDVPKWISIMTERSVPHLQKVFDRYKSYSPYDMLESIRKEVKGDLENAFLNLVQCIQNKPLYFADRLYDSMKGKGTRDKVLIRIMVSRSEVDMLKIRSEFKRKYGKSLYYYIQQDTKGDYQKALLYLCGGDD
T5 sequence (O95373 whole entry): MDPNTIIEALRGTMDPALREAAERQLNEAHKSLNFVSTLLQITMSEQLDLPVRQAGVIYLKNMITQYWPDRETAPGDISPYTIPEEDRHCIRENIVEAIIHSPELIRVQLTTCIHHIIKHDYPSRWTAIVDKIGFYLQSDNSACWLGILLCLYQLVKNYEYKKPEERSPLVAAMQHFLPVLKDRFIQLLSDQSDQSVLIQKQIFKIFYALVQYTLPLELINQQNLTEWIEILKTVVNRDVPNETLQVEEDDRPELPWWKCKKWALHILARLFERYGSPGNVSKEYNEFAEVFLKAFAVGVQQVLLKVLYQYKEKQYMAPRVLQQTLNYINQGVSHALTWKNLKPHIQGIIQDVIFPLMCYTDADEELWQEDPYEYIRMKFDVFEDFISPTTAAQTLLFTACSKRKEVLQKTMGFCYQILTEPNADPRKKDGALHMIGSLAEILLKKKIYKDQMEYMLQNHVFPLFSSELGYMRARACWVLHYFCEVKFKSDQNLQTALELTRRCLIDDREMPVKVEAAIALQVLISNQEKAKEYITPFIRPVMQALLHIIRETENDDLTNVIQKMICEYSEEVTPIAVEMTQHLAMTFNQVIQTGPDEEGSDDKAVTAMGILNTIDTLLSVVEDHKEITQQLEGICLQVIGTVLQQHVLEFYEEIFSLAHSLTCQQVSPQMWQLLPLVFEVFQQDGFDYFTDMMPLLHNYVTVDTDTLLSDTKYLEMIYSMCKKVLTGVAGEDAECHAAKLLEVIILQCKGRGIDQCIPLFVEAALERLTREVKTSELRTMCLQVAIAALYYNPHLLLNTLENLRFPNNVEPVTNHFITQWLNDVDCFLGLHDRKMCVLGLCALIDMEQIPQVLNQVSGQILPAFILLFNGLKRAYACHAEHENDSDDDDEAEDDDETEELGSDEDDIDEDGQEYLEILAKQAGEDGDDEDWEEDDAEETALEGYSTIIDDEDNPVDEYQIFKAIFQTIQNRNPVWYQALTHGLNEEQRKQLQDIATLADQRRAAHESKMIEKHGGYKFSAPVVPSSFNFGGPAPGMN

Row | co-IP mass spectrometry count (N-term FLAG) (VIM) | co-IP mass spectrometry count (N-term FLAG) (ANXA2) | co-IP mass spectrometry count (TRAFD1) | co-IP mass spectrometry count (IPO7) | co-IP mass spectrometry count (SLC25A22) | co-IP mass spectrometry count (ELOC) | co-IP mass spectrometry count (ABCD1) | Binder
1 | 402 | 17 | – | – | – | – | – | N-terminal FLAG tagged B3GNT2 (enzyme, human, UniProt Q9NY97 1-397, looked up, FLAG-tagged ORF overexpressed in A375 cells; bait of the co-IP with mouse anti-FLAG; also called N-FLAG B3GNT2; N-term FLAG; not shown: N-terminal FLAG tag) MSVGRRRIKLLGILMMANVFIYFIMEVSKSSSQEKNGKGEVIIPKEKFWKISTPPEAYWNREQEKLNRQYNPILSMLTNQTGEAGRLSNISHLNYCEPDLRVTSVVTGFNNLPDRFKDFLLYLRCRNYSLLIDQPDKCAKKPFLLLAIKSLTPHFARRQAIRESWGQESNAGNQTVVRVFLLGQTPPEDNHPDLSDMLKFESEKHQDILMWNYRDTFFNLSLKEVLFLRWVSTSCPDTEFVFKGDDDVFVNTHHILNYLNSLSKTKAKDLFIGDVIHNAGPHRDKKLKYYIPEVVYSGLYPPYAGGGGFLYSGHLALRLYHITDQVHLYPIDDVYTGMCLQKLGLVPEKHKGFRTFDIEEKNKNNICSYVDLMLVHSRKPQEMIDIWSQLQSAHLKC
2 | – | – | 0 | 0 | 0 | 0 | 0 | N-terminal FLAG tagged B3GNT2 (enzyme, human, UniProt Q9NY97 1-397, looked up, Bait of the co-IP; pulled down from cell lysate with mouse anti-FLAG antibody; also called N-FLAG B3GNT2; N-term FLAG; not shown: N-terminal FLAG tag) MSVGRRRIKLLGILMMANVFIYFIMEVSKSSSQEKNGKGEVIIPKEKFWKISTPPEAYWNREQEKLNRQYNPILSMLTNQTGEAGRLSNISHLNYCEPDLRVTSVVTGFNNLPDRFKDFLLYLRCRNYSLLIDQPDKCAKKPFLLLAIKSLTPHFARRQAIRESWGQESNAGNQTVVRVFLLGQTPPEDNHPDLSDMLKFESEKHQDILMWNYRDTFFNLSLKEVLFLRWVSTSCPDTEFVFKGDDDVFVNTHHILNYLNSLSKTKAKDLFIGDVIHNAGPHRDKKLKYYIPEVVYSGLYPPYAGGGGFLYSGHLALRLYHITDQVHLYPIDDVYTGMCLQKLGLVPEKHKGFRTFDIEEKNKNNICSYVDLMLVHSRKPQEMIDIWSQLQSAHLKC
